Laboratory results as given in paper doi:10.1101/2023.10.11.561842.

Assays:
[1] = target: ErNaR, NDQ rhodopsin (light-driven sodium pump) from Erythrobacter sp. HL-111 (Erythrobacter sp. HL-111); assay: SEC
[2] = target: ErNaR, NDQ rhodopsin (light-driven sodium pump) from Erythrobacter sp. HL-111 (Erythrobacter sp. HL-111); assay: cryo-EM structure
[3] = target: ErNaR, NDQ rhodopsin (light-driven sodium pump) from Erythrobacter sp. HL-111 (Erythrobacter sp. HL-111); assay: cryo-EM structure; remark: listed apart in the source
[4] = target: ErNaR, NDQ rhodopsin (light-driven sodium pump) from Erythrobacter sp. HL-111 (Erythrobacter sp. HL-111); assay: SEC; remark: listed apart in the source

Measured: stoichiometry N

ErNaR, NDQ rhodopsin (light-driven sodium pump) from Erythrobacter sp. HL-111 (natural protein)
5: all assays above
